We go through one molecule from article PMC8540335.

For series [1], the target named is NCp7 (1 Zn2+ per protein, as purified) (HIV-1, UniProt P04591 378-432). The series is described as follows: SPR; 1 Zn2+ per protein; 50 RU RNA immobilized; SPR (Biacore X100, SA chip): 10 mM HEPES pH 7.4, 150 mM NaCl, 0.005% Tween-20, 25 C. The following applies: protein: recombinant; tags: 6xHis (pET28); label: 3'-biotin; hairpin.
For a further series, the target named is 2NCp7 (NCp7 with 2 Zn2+) (HIV-1, UniProt P04591 378-432). The series is described as follows: SPR; 2 Zn2+ per protein; 50 RU RNA immobilized; SPR (Biacore X100, SA chip): 10 mM HEPES pH 7.4, 150 mM NaCl, 0.005% Tween-20, 25 C. The following applies: protein: recombinant; tags: 6xHis (pET28); label: 3'-biotin; hairpin.

With GGACUAGCGGAGGCUAGUCC (structured_RNA) [SL3-RNA], the figures for the dissociation constant (Kd) (in series [1]; with 2NCp7 (NCp7 with 2 Zn2+)) were 21.4 nM and 3.15 nM, respectively.
